Experiments:
[1] = target: Taxol-stabilized microtubules from porcine brain tubulin (porcine) (UniProt P02550); test: co-sedimentation; 200 nM LRRK^RCKW with various concentrations of taxol-stabilized microtubules, 10 minutes at room temperature, 20 mM Hepes pH 7.4, 110 mM NaCl (also 100 and 150 mM NaCl), 0.5 mM MgCl2, 0.5 mM TCEP, 5% glycerol, 20 μM GDP, 20 μM taxol; pelleted at 108,628 g; depletion from the supernatant on SYPRO-Red gels
[2] = target: Subtilisin-treated taxol-stabilized microtubules (C-terminal tubulin tails cleaved), labeled with Alexa Fluor 488 and biotin (bovine) (UniProt Q6B856); test: widefield fluorescence microscopy of labeled protein on tethered microtubules; Alexa Fluor 488-labeled microtubules tethered to a coverslip by biotin-streptavidin; TMR-labeled LRRK^RCKW (6.25 nM–50 nM; 100 nM for the NaCl series) incubated 5 minutes in 20 mM Hepes pH 7.4, 80 mM NaCl, 0.5 mM MgCl2, 0.5 mM TCEP, 5% glycerol, 20 μM GDP; also increasing sodium chloride
Subtilisin-treated taxol-stabilized microtubules (C-terminal tubulin tails cleaved), labeled with Alexa Fluor 488 and biotin (bovine), sequence (Q6B856 whole entry, looked up): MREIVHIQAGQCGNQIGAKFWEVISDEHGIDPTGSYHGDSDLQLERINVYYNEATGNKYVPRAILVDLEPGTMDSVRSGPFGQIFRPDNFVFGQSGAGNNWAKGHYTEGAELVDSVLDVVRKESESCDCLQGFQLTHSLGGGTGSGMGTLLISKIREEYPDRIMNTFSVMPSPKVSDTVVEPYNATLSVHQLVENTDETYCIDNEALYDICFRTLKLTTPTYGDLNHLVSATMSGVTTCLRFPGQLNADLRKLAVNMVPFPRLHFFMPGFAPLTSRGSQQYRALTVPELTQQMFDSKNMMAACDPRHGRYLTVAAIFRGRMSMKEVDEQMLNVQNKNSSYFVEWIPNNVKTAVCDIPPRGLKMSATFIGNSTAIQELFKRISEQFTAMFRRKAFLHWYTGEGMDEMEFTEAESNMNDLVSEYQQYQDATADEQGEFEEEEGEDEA

TMR-LRRK2^RCKW (LRRK2^RCKW randomly labeled with BODIPY TMR-X), sequence (Q5S007 1327-2527): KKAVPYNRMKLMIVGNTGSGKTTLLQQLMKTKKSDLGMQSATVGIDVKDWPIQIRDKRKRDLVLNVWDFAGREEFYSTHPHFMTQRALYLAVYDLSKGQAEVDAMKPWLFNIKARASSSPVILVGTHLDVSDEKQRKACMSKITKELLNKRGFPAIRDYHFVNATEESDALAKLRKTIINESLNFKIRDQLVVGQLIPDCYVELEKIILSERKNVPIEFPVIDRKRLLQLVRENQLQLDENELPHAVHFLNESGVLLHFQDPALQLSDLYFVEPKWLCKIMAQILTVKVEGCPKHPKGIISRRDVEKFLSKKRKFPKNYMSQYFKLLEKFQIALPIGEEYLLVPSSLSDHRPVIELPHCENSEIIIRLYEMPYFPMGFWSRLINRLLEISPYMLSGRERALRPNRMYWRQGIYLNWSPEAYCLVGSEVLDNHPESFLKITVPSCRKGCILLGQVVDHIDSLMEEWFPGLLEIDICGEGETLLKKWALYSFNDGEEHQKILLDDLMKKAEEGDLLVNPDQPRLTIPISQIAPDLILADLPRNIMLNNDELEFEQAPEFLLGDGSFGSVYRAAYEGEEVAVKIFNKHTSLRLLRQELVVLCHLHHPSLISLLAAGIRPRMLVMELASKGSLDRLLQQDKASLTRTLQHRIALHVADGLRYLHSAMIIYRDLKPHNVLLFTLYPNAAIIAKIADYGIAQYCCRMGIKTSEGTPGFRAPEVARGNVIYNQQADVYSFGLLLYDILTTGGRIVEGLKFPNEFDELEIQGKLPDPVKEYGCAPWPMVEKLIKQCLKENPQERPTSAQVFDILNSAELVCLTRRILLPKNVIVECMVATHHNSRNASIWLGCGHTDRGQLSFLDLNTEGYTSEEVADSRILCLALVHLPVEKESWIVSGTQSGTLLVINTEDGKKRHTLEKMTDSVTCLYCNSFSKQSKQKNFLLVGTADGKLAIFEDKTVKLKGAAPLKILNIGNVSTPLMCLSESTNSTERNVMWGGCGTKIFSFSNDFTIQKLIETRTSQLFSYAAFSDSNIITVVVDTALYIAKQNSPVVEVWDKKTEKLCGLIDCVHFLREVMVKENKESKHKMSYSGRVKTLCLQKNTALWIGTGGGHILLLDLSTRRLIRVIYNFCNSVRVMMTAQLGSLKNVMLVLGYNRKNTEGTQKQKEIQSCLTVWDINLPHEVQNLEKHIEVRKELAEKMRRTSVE

Substance | reduction of pelleting with microtubules against WT LRRK2^RCKW [1] [%] | decrease of microtubule binding against untreated microtubules [2] [%]
LRRK2^RCKW-R1731D (from UniProt Q5S007 1327-2527) (domain or fragment) | 50 | –
TMR-LRRK2^RCKW (LRRK2^RCKW randomly labeled with BODIPY TMR-X) (from UniProt Q5S007 1327-2527) (domain or fragment) | – | 50

— paper PMC9758056
